{"source": "paper PMC7542843", "about": "(ACS Omega, 2020)", "molecules": {"B1": {"name": "Heregulin-β1 (Hrgβ1) (ligand)", "chain": "TSHLVKCAEKEKTFCVNGGECFMVKDLSNPSRYLCKCPNEFTGDRCQNYVMASFYKHLGIEFMEAEELYQK"}}, "key": {"EGF (Homo sapiens)": {"target": "EGF (Homo sapiens) (UniProt P01133)", "sequence (P01133 971-1023)": "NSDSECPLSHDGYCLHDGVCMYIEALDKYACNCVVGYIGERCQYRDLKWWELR", "conditions": "cited from earlier work"}, "[1]": {"target": "biotinylated HER3 extracellular domain (ECD) (UniProt P21860 20-643, biotin on the C-terminal BirA biotinylation site)", "sequence (P21860 20-643)": "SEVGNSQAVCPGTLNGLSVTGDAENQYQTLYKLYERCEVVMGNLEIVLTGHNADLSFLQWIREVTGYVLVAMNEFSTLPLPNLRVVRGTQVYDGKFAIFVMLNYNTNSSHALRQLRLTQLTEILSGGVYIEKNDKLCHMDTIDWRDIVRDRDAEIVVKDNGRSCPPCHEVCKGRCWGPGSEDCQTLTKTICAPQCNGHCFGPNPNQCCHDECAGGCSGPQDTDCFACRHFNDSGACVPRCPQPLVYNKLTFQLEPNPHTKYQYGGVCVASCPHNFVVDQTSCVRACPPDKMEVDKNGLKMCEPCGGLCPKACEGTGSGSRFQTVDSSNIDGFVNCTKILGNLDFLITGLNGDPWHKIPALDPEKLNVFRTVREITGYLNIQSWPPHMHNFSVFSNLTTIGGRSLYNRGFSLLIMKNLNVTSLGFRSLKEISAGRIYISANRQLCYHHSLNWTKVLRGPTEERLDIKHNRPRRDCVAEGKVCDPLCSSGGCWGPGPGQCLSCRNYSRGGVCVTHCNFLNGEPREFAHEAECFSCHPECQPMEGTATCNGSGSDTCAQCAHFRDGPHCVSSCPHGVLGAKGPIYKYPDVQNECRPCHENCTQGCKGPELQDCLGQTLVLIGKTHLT", "assay": "ELISA"}}, "data": [{"molecule": "EGFR (from UniProt P00533)", "values": [{"measurement": "Kd", "setting": "EGF (Homo sapiens)", "value": 177, "unit": "nM"}]}, {"molecule": "B1", "values": [{"measurement": "Kd", "setting": "[1]", "value": 12.6, "unit": "nM"}]}]}
